Measured values as given in the supplement of paper PMC9170038.

System: MS2 coat protein
Experiment: apparent KD of MS2 coat protein; designed switch direction (-1 OFF switch, 1 ON switch): -1; higher = weaker reporter binding
Summary of the method: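 Stalled E. coli RNA polymerase transcribed designed RNA switches on Illumina chips, which were then titrated with SNAP-549-labelled MS2 coat protein, doubling from 0.7 or 1.5 nM to 3 µM. Steps lasted from 0.8–1.5 h at the lowest concentration to 10–20 min at the highest. The apparent KD is each design's median over clusters of curve-fitted normalised fluorescence.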

[1] = input ligand: microRNA oligo, concentration not stated
[2] = Eterna round: R95, input ligand: FMN 200 uM
[3] = Eterna round: R95, input ligand: microRNA oligo, concentration not stated
[4] = Eterna round: R95, input ligand: none

Row | Sequence | apparent KD of MS2 coat protein (input ligand: FMN 200 uM) | apparent KD of MS2 coat protein (input ligand: none) | apparent KD of MS2 coat protein [1] | apparent KD of MS2 coat protein [2] | apparent KD of MS2 coat protein [3] | apparent KD of MS2 coat protein [4]
1 | AAAUUGGUAGAGGAUAUCGUACAGGAAACGGUGCGAGAAGGUUGCACAUGAGGAUCACCCAUGUUAAGUUGCGA [EX6 #45] (Eterna round: R97, puzzle: Exclusion 6) | 24.1 nM | 26.8 nM | – | – | – | –
2 | UUUAAUGGAAUUAAGAUCACAUGAGGAUCACCCAUGUAUAUAUAGGAUAUCAGCUCGUGUAGAGCUGAGAAGGAUAUAUACAUA [ExNG3/6-B3] (Eterna round: R96, puzzle: Exclusion NG 3) | 208 nM | 185 nM | 344 nM | – | – | –
3 | ACAAGCUUUUUGCUCGGGUACAUGAGGAUCACCCAUGUUGUGUUUUAUUGUUUUUGAUUGUUCGUGCGCUGCAGGUU [JR_SV3TOV1_Sub074] (puzzle: Sensor v3, turn-off variant 1) | – | – | – | 42.7 nM | 38.5 nM | 58.3 nM
4 | GGCGAGGGAGGAUAUACGUGAUUGAUGCCGGGAACCCAGAGACAUGAGGAUCACCCAUGUAGAAGGCCCGGCUA [EX2 B.4] (Eterna round: R97, puzzle: Exclusion 2) | 10.9 nM | 14.5 nM | – | – | – | –
5 | CCUGCACAUGAGGAUCACCCAUGUCAGGAUAUCUCGCCGUCGGCUUGCCGACGGUAUUAGAGAAGGGACACGGG [JL Tixe mod 1] (puzzle: Exclusion 1) | – | – | – | – | 22 nM | –
6 | AAAUGCAGGUAAAGAUUCUACAUGAGGAUCACCCAUGUGCUCGUCUUAUAAAGUACUAUCACGAAAGUGAUAGUACA [Sensor 3, v1 - 41] (puzzle: Sensor v3, turn-off variant 1) | – | – | – | 27.6 nM | 268 nM | 26.6 nM
7 | GCUGCGCGAGGAUAUGCGGUUUGUGCUGUGGCCCGUGGCGUACAUGAGGAUCACCCAUGUAGAAGGCGUGUGGG [Apr-15 SS2-54] (puzzle: Exclusion 2) | – | – | – | – | 22.5 nM | –
8 | GAUGAGGUAGGAUAUACGAUAAUAUAGGGUAGAUAUAUAACACAUGAGGAUCACCCAUGUAGAAGGACCAGUAC [Mat - Exclusion 2 - Mod of my Tesla design - D69] (puzzle: Exclusion 2) | – | – | – | – | 36.4 nM | –
9 | GUCUCGUCAGGAUAUGACGCUACAUUUUGUUUUUAGAAGAGUCAGAAGGGACAUGAGGAUCACCCAUGUGAUUC [Ex4 - 3 - 1] (puzzle: Exclusion 4) | – | – | – | – | 257 nM | –
10 | AAGAGGAUCAAAGGAUAUGGAGCUGAAACGGCGCUAGAAGGUUGUCCAGUGUAACAUGAGGAUCACCCAUGUAGGGACCUCUAA [AK ExNG1-V2-3] (Eterna round: R96, puzzle: Exclusion NG 1) | 100 nM | 42.9 nM | 57.5 nM | – | – | –
11 | CUCUGCACGCUGCGGUCCUACAUGAGGAUCACCCAUGUGGUCUGGUGGCGUGGGUCGCCGGACUUGGCUCGUCUUGA [salish99_S_TOV1_R5_046] (Eterna round: R97, puzzle: Sensor, turn-off variant 1) | 19 nM | 18.7 nM | – | – | – | –
12 | UCGAUGUGAGGAUAUAUAUGCAGUAGUCCUUGUGUUUUAUAACUUGAGGAUCACCCAAGUAGAAGGCGCGACGU [JR_Ex2_Sub059] (Eterna round: R97, puzzle: Exclusion 2) | 37 nM | 33.5 nM | – | – | – | –
13 | AGAAGACAUGAGGAUCACCCAUGUAAGGAUAUCGAAGGUAUGAGAGGAAAGAGGUUAACGAGAAGGUACAGGUG [JR_Exclu1_Sub098] (puzzle: Exclusion 1) | – | – | – | 85.9 nM | 74.1 nM | 130 nM
14 | GGCCCGCGCGUGAGGAUAUGCUGAUACUAGGAUUAGCAGAAGGCACAUGAGGAUCACCCAUGUCCAACUUGUCU [LRO-BmodExc4-11- Bluer = mod of Colors by Tatyana Zabanova] (Eterna round: R97, puzzle: Brourd's mod of Exclusion 4) | 34.4 nM | 24.5 nM | – | – | – | –
15 | UAAUAACAAGCGAGAUCCUACAUGAGGAUCACCCAUGUGCUCGUCUUAUAAGGUACUGUGACGAAAGUCACGGUACC [Eli 87 + Mat D67] (Eterna round: R97, puzzle: Sensor, turn-off variant 1) | 17.9 nM | 20.1 nM | – | – | – | –
16 | UUUUUAUAUGAAGGAUAUACUUAACAUGAGGAUCACCCAUGUGGUGUUGUGAGUGAGUGAGUUUAGUAGAAGGUCAAUGAUUUC [JMF's solution 64] (Eterna round: R96, puzzle: Exclusion NG 2) | 764 nM | 439 nM | 382 nM | – | – | –
17 | UACGAGUUAGGAUAUGCAUUGGGCUCGCUUUCCUUCGAUAAACUUGAGGAUCACCCAAGUAGAAGGAACUUGUA [Mod 35 - Jieux - Exclusion 2] (Eterna round: R97, puzzle: Exclusion 2) | 42.3 nM | 16.4 nM | – | – | – | –

Row | Sequence | apparent KD of MS2 coat protein (input ligand: FMN 200 uM) | apparent KD of MS2 coat protein (input ligand: none) | apparent KD of MS2 coat protein [1] | apparent KD of MS2 coat protein [2] | apparent KD of MS2 coat protein [3] | apparent KD of MS2 coat protein [4]
18 | CGUGCGUAUGUGAGGAUAUGCUGGUCCUUGGAUCGGCAGAAGGCACAUGAGGAUCACCCAUGUGGUGUCGUUCC [salish99_Bmod_ex4_094] (Eterna round: R96, puzzle: Brourd's mod of Exclusion 4) | 328 nM | 39.1 nM | 30.8 nM | – | – | –
19 | AAGCUGUGAGGAUAUACAUGAGGAUCACCCAUGUUAAGGAAGUCGGGAUUAAUUUGGUGUAGAAGGCGCUUAUU [JR_Ex3_Sub019] (Eterna round: R97, puzzle: Exclusion 3) | 46.1 nM | 48.6 nM | – | – | – | –
20 | UUCCUCUCUUCUCCGUCUCACAUGAGGAUCACCCAUGUAACAUAGGAUAUGCUUGGUAUUUAAAUGCAGAAGGAUGUUAGUAUU [JR_ExcNG3_Sub081] (Eterna round: R96, puzzle: Exclusion NG 3) | 76.6 nM | 29.5 nM | 21.1 nM | – | – | –
21 | CUCAUGUGAGGAUAUCAGUAGUGAUACGAUAGUAUUACUGCUGAGAAGGUACAUGAGGAUCACCCAUGUUCCUC [Exclusion 4 - Mod Omei Ex4 344 mod 4 v.3] (puzzle: Exclusion 4) | – | – | – | – | 26.9 nM | –
22 | GAUCAACAUGAGGAUCACCCAUGUGAGGAUAUGAUACUAUGUACUUCGGUACAUAGUAUCAGAAGGCACAUUGA [Ex1-3: 42] (puzzle: Exclusion 1) | – | – | – | – | 90.9 nM | –
23 | UCGUUCCGUGUAGGAUAUUGGCCUUCCUUGGGCCGAGAAGGACAUGAGGAUCACCCAUGUAUGUUAUUAUCGCGCGUGGCGCAU [Design 87] (Eterna round: R96, puzzle: Exclusion NG 1) | 97.1 nM | 18.6 nM | 13.3 nM | – | – | –
24 | AAUCCACAUGAGGAUCACCCAUGUGAGGAUAUGAUACUAUGUACUUCGGUACAUAGUAUCAGAAGGCACAGGUC [Ex1-3: 58] (puzzle: Exclusion 1) | – | – | – | – | 25 nM | –
25 | CCCACAAGCUUUUUGCUCGACAUGAGGAUCACCCAUGUAAAAUGGGUUAUAUAUAUAUGAAACAUAUAUAUAUACCU [-21.6, -47.5 kcal, A 35%] (Eterna round: R97, puzzle: Sensor, turn-off variant 1) | 43.9 nM | 47.6 nM | – | – | – | –
26 | AACAGUCUAGAGGAUAUGCUGGAUUAAUAUCUGGCAGAAGGCUGGACAUGAGGAUCACCCAUGUAAAUACUACC [Omei Ex6 A1] (Eterna round: R97, puzzle: Exclusion 6) | 137 nM | 44.3 nM | – | – | – | –
27 | UAUUGCAAGCGAAGAUCCCACAUGAGGAUCACCCAUGUGCUCGUCUUAUAAGGUACUGUGACGAUAGUCACGGUACC [Mat - Sensor, turn-off var - Eli Mod - D76] (Eterna round: R97, puzzle: Sensor, turn-off variant 1) | 34 nM | 30.6 nM | – | – | – | –
28 | GACGUGUAAGGAUAUGAUGUUGCAAACAAGACCCUUAAUCAUUAGAAGGUACAUGAGGAUCACCCAUGUAGGGU [Eternabot (L2) Solution 100] (Eterna round: R97, puzzle: Exclusion 4) | 129 nM | 140 nM | – | – | – | –
29 | ACGCAUUGCCUUUGGUAGUGCGUAACAUGAGGAUCACCCAUGUAGGAUAUGGUAGGCUUUGCUUACCAGAAGGACAUUGUUGAU [Omei mod of JL ENG3 1.03] (Eterna round: R96, puzzle: Exclusion NG 3) | 220 nM | 130 nM | 107 nM | – | – | –
30 | AAUACAAGCGAGAUCCUAAACAUGAGGAUCACCCAUGUGCUCGUCUUAUAAAGUACUAUCACGAAAGUGAUAGUACA [Sensor 3, v1 - 67] (puzzle: Sensor v3, turn-off variant 1) | – | – | – | 16.7 nM | 157 nM | 16.5 nM
31 | AAAGUAGGAGGAUAUGGAUAUAGUAACAUGAGGAUCACCCAUGUUCUUGGUGUUCGUUACCCAGAAGGCCUGACAC [Eternabot (L1) Solution 64] (Eterna round: R97, puzzle: Exclusion 5) | 184 nM | 91 nM | – | – | – | –
32 | UUUCCGGCGCGGGUUUUUUACAUGAGGAUCACCCAUGUCCUCUGCUUGUCUUGUCUUGGGCUUUUUUUGGGUUCGGG [-19, -39.7 kcal, A 8%] (Eterna round: R97, puzzle: Sensor, turn-off variant 1) | 697 nM | – | – | – | – | –
33 | GCGGACAAGAUCGCGAGAUCAGAGACAUGAGGAUCACCCAUGUAGGAUAUCGAUUCGAAACGAAUCGAGAAGGGCAUAGUCCGC [JL denovo 5] (Eterna round: R96, puzzle: Exclusion NG 3) | 17.3 nM | 19.4 nM | 11.6 nM | – | – | –
34 | AGAAGACAUGAGGAUCACCCAUGUAAGGAUAUCGAAGGUAAGAGAGGAAAGAAGGGAACGAGAAGGUACAGGUG [JR_Exclu1_Sub096] (puzzle: Exclusion 1) | – | – | – | 91.6 nM | 107 nM | 156 nM
